Reference: the supplement of paper PMC10567573

B1: TEKT4 (parent)
chain: LREKLLEAEQSLRNLEDIHMSLEK

Variants of: B1
Experiment: protein stability index of a GFP-peptide fusion (GPS, HEK-293T) (PSI 1-6); higher = more stable
Details: c terminus: a fixed tail appended
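Further: lentivirally expressed fusions sorted by FACS into six bins by GFP to DsRed ratio, PSI derived from sequencing read proportions per bin multiplied by bin number.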

| Variant | protein stability index |
| --- | --- |
| LREKLLEAEQSKRNLEDIHMSLEK [L12K] | 3.98 |
| LREKLLEAEQSARNLEDIHMSLEK [L12A] | 3.84 |
| LREKLLEAEQSYRNLEDIHMSLEK [L12Y] | 2.03 |
| LREKLLEAEQSSRNLEDIHMSLEK [L12S] | 3.62 |
| LREKLLEAEQSERNLEDIHMSLEK [L12E] | 4.97 |
| LREKLLEAEQSVRNLEDIHMSLEK [L12V] | 3.3 |
| LREKLLEAEQSHRNLEDIHMSLEK [L12H] | 4.44 |
| LREKLLEAEQSGRNLEDIHMSLEK [L12G] | 3.89 |
| LREKLLEAEQSDRNLEDIHMSLEK [L12D] | 5.05 |
| LREKLLEAEQSRRNLEDIHMSLEK [L12R] | 3.02 |
| LREKLLEAQQSLRNLEDIHMSLEK [E9Q] | 1.98 |
| LREKLLEAGQSLRNLEDIHMSLEK [E9G] | 2.89 |
| LREKLLEAIQSLRNLEDIHMSLEK [E9I] | 1.75 |
| LREKLLEAKQSLRNLEDIHMSLEK [E9K] | 3.17 |
| LREKLLEATQSLRNLEDIHMSLEK [E9T] | 2.44 |
| LREKLLEAVQSLRNLEDIHMSLEK [E9V] | 2.05 |
| LREKLLEAHQSLRNLEDIHMSLEK [E9H] | 2.58 |
| LREKLLEASQSLRNLEDIHMSLEK [E9S] | 2.61 |
| LREKLLEARQSLRNLEDIHMSLEK [E9R] | 3.25 |
| LREKLLEANQSLRNLEDIHMSLEK [E9N] | 3.15 |
| LREKLLEALQSLRNLEDIHMSLEK [E9L] | 2.77 |
| LREKLLEAFQSLRNLEDIHMSLEK [E9F] | 1.37 |
| LREKLLEAAQSLRNLEDIHMSLEK [E9A] | 2.38 |
| LREKLLEAWQSLRNLEDIHMSLEK [E9W] | 2.06 |

| Variant | protein stability index |
| --- | --- |
| LREKLLEAYQSLRNLEDIHMSLEK [E9Y] | 2.06 |
| LREKLLEACQSLRNLEDIHMSLEK [E9C] | 1.85 |
| LREKLLEADQSLRNLEDIHMSLEK [E9D] | 3.4 |
| LREKLLEAPQSLRNLEDIHMSLEK [E9P] | 3.52 |
| LREKLLEAEQSLLNLEDIHMSLEK [R13L] | 2.18 |
| LREKLLEAEQSLQNLEDIHMSLEK [R13Q] | 3.43 |
| LREKLLEAEQSLSNLEDIHMSLEK [R13S] | 1.89 |
| LREKLLEAEQSLPNLEDIHMSLEK [R13P] | 2.45 |
| LREKLLEAEQSLFNLEDIHMSLEK [R13F] | 2.11 |
| LREKLLEAEQSLGNLEDIHMSLEK [R13G] | 2.22 |
| LREKLLEAEQSLINLEDIHMSLEK [R13I] | 2.6 |
| LREKLLEAEQSLWNLEDIHMSLEK [R13W] | 2.09 |
| LREKLLEAEQSLKNLEDIHMSLEK [R13K] | 2.22 |
| LREKLLEAEQSLHNLEDIHMSLEK [R13H] | 3.38 |
| LREKLLEAEQSLTNLEDIHMSLEK [R13T] | 2.61 |
| LREKLLEAEQSLCNLEDIHMSLEK [R13C] | 2.21 |
| LREKLLEAEQSLDNLEDIHMSLEK [R13D] | 3.69 |
| LREKLLEAEQSLYNLEDIHMSLEK [R13Y] | 2.11 |
| LREKLLEAEQSLVNLEDIHMSLEK [R13V] | 2.96 |
| LREKLLEAEQSLMNLEDIHMSLEK [R13M] | 2.52 |
| LREKSLEAEQSLRNLEDIHMSLEK [L5S] | 4.68 |
| LREKDLEAEQSLRNLEDIHMSLEK [L5D] | 5.1 |
| LREKPLEAEQSLRNLEDIHMSLEK [L5P] | 4.75 |
| LREKGLEAEQSLRNLEDIHMSLEK [L5G] | 4.83 |

| Variant | protein stability index |
| --- | --- |
| LREKMLEAEQSLRNLEDIHMSLEK [L5M] | 3.2 |
| LREKILEAEQSLRNLEDIHMSLEK [L5I] | 2.72 |
| LREKKLEAEQSLRNLEDIHMSLEK [L5K] | 4.93 |
| LREKWLEAEQSLRNLEDIHMSLEK [L5W] | 4.04 |
| LREKELEAEQSLRNLEDIHMSLEK [L5E] | 5.05 |
| LREKTLEAEQSLRNLEDIHMSLEK [L5T] | 4.67 |
| LREKNLEAEQSLRNLEDIHMSLEK [L5N] | 5.13 |
| LREKCLEAEQSLRNLEDIHMSLEK [L5C] | 2.44 |
| LREKRLEAEQSLRNLEDIHMSLEK [L5R] | 4.49 |
| LREKYLEAEQSLRNLEDIHMSLEK [L5Y] | 3.86 |
| LREKVLEAEQSLRNLEDIHMSLEK [L5V] | 2.66 |
| LREKHLEAEQSLRNLEDIHMSLEK [L5H] | 4.08 |
| LREKALEAEQSLRNLEDIHMSLEK [L5A] | 4.49 |
| LREKFLEAEQSLRNLEDIHMSLEK [L5F] | 3.27 |
| LREKQLEAEQSLRNLEDIHMSLEK [L5Q] | 5.21 |
| LRRKLLEAEQSLRNLEDIHMSLEK [E3R] | 2.69 |
| LRQKLLEAEQSLRNLEDIHMSLEK [E3Q] | 2.82 |
| LRTKLLEAEQSLRNLEDIHMSLEK [E3T] | 1.63 |
| LRVKLLEAEQSLRNLEDIHMSLEK [E3V] | 2.01 |
| LRNKLLEAEQSLRNLEDIHMSLEK [E3N] | 2.27 |
| LRMKLLEAEQSLRNLEDIHMSLEK [E3M] | 2.88 |
| LRLKLLEAEQSLRNLEDIHMSLEK [E3L] | 2.58 |
| LRPKLLEAEQSLRNLEDIHMSLEK [E3P] | 2.24 |
| LRSKLLEAEQSLRNLEDIHMSLEK [E3S] | 2.47 |

| Variant | protein stability index |
| --- | --- |
| LRWKLLEAEQSLRNLEDIHMSLEK [E3W] | 1.81 |
| LRYKLLEAEQSLRNLEDIHMSLEK [E3Y] | 2.15 |
| LREKLLEAEDSLRNLEDIHMSLEK [Q10D] | 1.92 |
| LREKLLEAEFSLRNLEDIHMSLEK [Q10F] | 2.89 |
| LREKLLEAEWSLRNLEDIHMSLEK [Q10W] | 1.98 |
| LREKLLEAETSLRNLEDIHMSLEK [Q10T] | 2.77 |
| LREKLLEAEPSLRNLEDIHMSLEK [Q10P] | 4.65 |
| LREKLLEAEYSLRNLEDIHMSLEK [Q10Y] | 1.85 |
| LREKLLEAEKSLRNLEDIHMSLEK [Q10K] | 2.37 |
| LREKLLEAEVSLRNLEDIHMSLEK [Q10V] | 2.08 |
| LREKLLEAENSLRNLEDIHMSLEK [Q10N] | 2.76 |
| LREKLLEAEASLRNLEDIHMSLEK [Q10A] | 3.49 |
| LREKLLEAELSLRNLEDIHMSLEK [Q10L] | 3.22 |
| LREKLLEAEISLRNLEDIHMSLEK [Q10I] | 1.34 |
| LREKLLEAESSLRNLEDIHMSLEK [Q10S] | 2.79 |
| LREKLLEAEHSLRNLEDIHMSLEK [Q10H] | 2.23 |
| LREKLLEAERSLRNLEDIHMSLEK [Q10R] | 2.69 |
| LREKLLEAEGSLRNLEDIHMSLEK [Q10G] | 2.71 |
| LREKLLEAECSLRNLEDIHMSLEK [Q10C] | 3.01 |
| LREKLLEAEQSLRDLEDIHMSLEK [N14D] | 2.27 |
| LREKLLEAEQSLRCLEDIHMSLEK [N14C] | 2.26 |
| LREKLLEAEQSLRELEDIHMSLEK [N14E] | 3.99 |
